Results published in patent US20180244754A1.

Target: human GH receptor (hGHR) (human) (UniProt P10912)
Experiment: cell-based or functional assay

Sequence of UniProt P10912 (P10912 19-638): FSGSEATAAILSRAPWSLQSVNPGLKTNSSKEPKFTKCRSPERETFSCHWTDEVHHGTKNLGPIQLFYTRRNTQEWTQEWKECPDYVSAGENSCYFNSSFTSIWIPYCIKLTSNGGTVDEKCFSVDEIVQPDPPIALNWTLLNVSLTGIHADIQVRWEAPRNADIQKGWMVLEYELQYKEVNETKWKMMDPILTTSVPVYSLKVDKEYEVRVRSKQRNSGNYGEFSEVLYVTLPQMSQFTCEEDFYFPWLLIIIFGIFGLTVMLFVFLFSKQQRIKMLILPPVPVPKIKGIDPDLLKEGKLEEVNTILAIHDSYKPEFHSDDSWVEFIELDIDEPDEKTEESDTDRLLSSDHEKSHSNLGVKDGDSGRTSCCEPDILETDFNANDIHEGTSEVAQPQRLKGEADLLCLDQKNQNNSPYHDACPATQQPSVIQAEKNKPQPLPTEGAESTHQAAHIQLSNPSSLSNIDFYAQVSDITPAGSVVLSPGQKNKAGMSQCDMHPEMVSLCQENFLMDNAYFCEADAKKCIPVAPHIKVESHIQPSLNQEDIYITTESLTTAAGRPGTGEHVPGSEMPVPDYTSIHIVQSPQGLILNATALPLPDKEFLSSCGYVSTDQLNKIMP

EC50 (nM), cell growth activity using BaF3/hGHR cells (absorbance at 490 nM)	EC50 of 22KhGH-HSA relative to EC50 of HSA-22KhGH, cell growth activity using BaF3/hGHR cells	EC50 of 22KhGH-mHSA relative to EC50 of mHSA-22KhGH, cell growth activity using BaF3/hGHR cells	Substance
0.153 nM	–	–	mHSA-22KhGH (ligand)
0.878 nM	6.4 times	–	22KhGH-HSA (ligand)
0.138 nM	–	–	HSA-22KhGH (ligand)
1.2 nM	–	7.8 times	22KhGH-mHSA (ligand)
